Measured values reported in article PMC3927786 (Chemistry & biology, 2013).

Molecular target: the molecule itself
Test: SEC

B1: pimeloyl-CoA ligase (BioW) (enzyme, UniProt P53559 1-259, looked up)
chain: MMQEETFYSVRMRASMNGSHEDGGKHISGGERLIPFHEMKHTVNALLEKGLSHSRGKPDFMQIQFEEVHESIKTIQPLPVHTNEVSCPEEGQKLARLLLEKEGVSRDVIEKAYEQIPEWSDVRGAVLFDIHTGKRMDQTKEKGVRVSRMDWPDANFEKWALHSHVPAHSRIKEALALASKVSRHPAVVAELCWSDDPDYITGYVAGKKMGYQRITAMKEYGTEEGCRVFFIDGSNDVNTYIHDLEKQPILIEWEEDHDS
  stoichiometry N: 2
